Consider 16 molecules from US20240368263A1 (PROMETHEUS BIOSCIENCES, published 2024).

Assay [1] concerns the target T1, human TL1A (Fitzgerald, Prod. #30R-AT070) (human, UniProt O95150 72-251, limits assumed, biotinylated with EZ-Link Sulfo-NHS-LC-Biotin where used as soluble antigen).
T1 construct: also called TNFSF15; biotinylated human TL1A
T1 sequence (looked up): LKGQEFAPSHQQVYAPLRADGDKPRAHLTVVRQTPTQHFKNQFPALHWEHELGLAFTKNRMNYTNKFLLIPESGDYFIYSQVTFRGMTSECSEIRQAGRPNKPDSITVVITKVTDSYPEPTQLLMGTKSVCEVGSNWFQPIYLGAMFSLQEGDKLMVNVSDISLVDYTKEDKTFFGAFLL
Description: capture lift screen and Fab ELISA on coated TL1A.

In assay [2] the target is TRAIL/TNFSF10 (R&D Systems, cat. no. 375-TL/CF) (UniProt P50591 114-281). Description: ELISA, antigen coated at 1 µg/ml, Fab titrated. The method, then:
(§1) Next, all the Fab variants were characterized for their selectivity for human TL1A relative to other TNFSF members TRAIL, LIGHT and Fas. […] The plate was washed 3 times with PBS-T and blocked with 100 μl of 1% BSA/PBS. The block was discarded and the Fab variants or control antibodies (Fas/TNFSF6, R&D Systems, cat. no. AF126; TRAIL/TNFSF10, R&D Systems, cat. no. AF375; LIGHT/TNFSF14, R&D Systems, cat. no. AF664) were titrated in 50 μl 1% BSA/PBS and incubated for 1 h at 25° C. The plate was washed 3 times with PBS-T and secondary HRP-conjugated antibody (diluted 5,000-fold in 1% BSA/PBS) was added for 1 h at 25° C. The plate was washed 3 times with PBS-T and developed.

Assay [3] addresses LIGHT/TNFSF14 (R&D Systems, cat. no. 664-LI/CF) (UniProt O43557 74-240). Description: ELISA, antigen coated at 1 µg/ml, Fab titrated. As for the experimental part: as §1
Assay [4] deals with T2, Fas/TNFSF6 (R&D Systems, cat. no. 126-FL/CF) (UniProt P48023 134-281).
T2 sequence (looked up): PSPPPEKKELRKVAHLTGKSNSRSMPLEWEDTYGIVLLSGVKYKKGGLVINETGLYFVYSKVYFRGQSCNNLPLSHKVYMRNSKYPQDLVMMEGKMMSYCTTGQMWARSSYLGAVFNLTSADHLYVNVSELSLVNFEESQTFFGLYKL
Description: ELISA, antigen coated at 1 µg/ml, Fab titrated. As for the experimental part:
as §1

LIGHT/TNFSF14 (R&D Systems, cat. no. 664-LI/CF), sequence (O43557 74-240 limits assumed): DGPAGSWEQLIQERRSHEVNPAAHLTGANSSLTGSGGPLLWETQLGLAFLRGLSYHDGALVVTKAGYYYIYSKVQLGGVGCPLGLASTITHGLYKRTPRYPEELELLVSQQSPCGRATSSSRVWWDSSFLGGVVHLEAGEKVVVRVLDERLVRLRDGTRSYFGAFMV
TRAIL/TNFSF10 (R&D Systems, cat. no. 375-TL/CF), sequence (P50591 114-281 limits assumed): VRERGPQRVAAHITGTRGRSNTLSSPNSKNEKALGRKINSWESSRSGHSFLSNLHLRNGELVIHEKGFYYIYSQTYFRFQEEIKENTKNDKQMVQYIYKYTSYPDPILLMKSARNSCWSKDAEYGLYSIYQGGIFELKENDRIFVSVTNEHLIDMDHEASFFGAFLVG

B1: 18-7 (CDR-grafted LC) Fab (Fab, V domains shown)
VH: QVQLVQSGAEVKKPGASVKLSCKASGFDIQDTYMHWVRQAPGQGLEWMGRIDPASGHTKYDPKFQVRVTMTRDTSTSTVYMELSSLRSEDTAVYYCSRSGGLPDVWGQGTTVTVSS
VL: EIVLTQSPGTLSLSPGERATLSCRASSSVSYMYWYQQKPGQAPRLLIYATSNLASGIPDRFSGSGSGTDFTLTISRLEPEDFAVYYCQQWSGNPRTFGGGTKLEIK
notes: Fab; also called clone 18-7
On to B1, for which the binding result in assay [1] is reported as “binds”.

B2: Clone 23 Fab (Fab, V domains shown)
VH: QVQLVQSGAEVKKPGASVKVSCKASGFDIQDTYMHWVRQAPGQGLEWMGRIDPASGHLKYDPKFQNRVTMTRDTSTSTVYMELSSLRSEDTAVYYCARSGGLPDKWGQGTTVTVSS
VL: EIVLTQSPGTLSLSPGERATLSCRASSSVSYMYWYQQKPGQAPRLLIYATSNLASGIPDRFSGSGSGTDFTLTISRLEPEDFAVYYCQQWEGNPRTFGGGTKLEIK
notes: Fab; also called variant 23
Consider B2, for which the binding result in assay [2], in assay [3] and in assay [4] was “no binding” in each case.

B3: Clone 53 Fab (Fab, V domains shown)
VH: QVQLVQSGAEVKKPGASVKVSCKASGFDIQDTYMHWVRQAPGQGLEWMGRIEPASGHLKYDPKFQERVTMTRDTSTSTVYMELSSLRSEDTAVYYCARSGGLPDKWGQGTTVTVSS
VL: EIVLTQSPGTLSLSPGERATLSCRASSSVSYMYWYQQKPGQAPRLLIYATSNLASGIPDRFSGSGSGTDFTLTISRLEPEDFAVYYCQQWEGNPRTFGGGTKLEIK
notes: Fab; also called variant 53
Consider B3, for which the binding result in assay [2], in assay [3] and in assay [4] was “no binding” throughout.

B4: Clone 14 Fab (Fab, V domains shown)
VH: QVQLVQSGAEVKKPGASVKVSCKASGFDIQDTYMHWVRQAPGQGLEWMGRIDPASGHIKYDPKFQKRVTMTRDTSTSTVYMELSSLRSEDTAVYYCARSGGLPDMWGQGTTVTVSS
VL: EIVLTQSPGTLSLSPGERATLSCRASSSVSYMYWYQQKPGQAPRLLIYATSNLASGIPDRFSGSGSGTDFTLTISRLEPEDFAVYYCQQWQGNPRTFGGGTKLEIK
notes: Fab; also called variant 14
With B4, the binding result in assay [2], in assay [3] and in assay [4] was “no binding” in each case.

B5: Clone 47 Fab (Fab, V domains shown)
VH: QVQLVQSGAEVKKPGASVKVSCKASGFDIQDTYMHWVRQAPGQGLEWMGRIEPASGHVKYDPKFQTRVTMTRDTSTSTVYMELSSLRSEDTAVYYCARSGGLPDWWGQGTTVTVSS
VL: EIVLTQSPGTLSLSPGERATLSCRASSSVSYMYWYQQKPGQAPRLLIYATSNLASGIPDRFSGSGSGTDFTLTISRLEPEDFAVYYCQQWEGNPRTFGGGTKLEIK
notes: Fab; also called variant 47
For B5, the binding result in assay [2], in assay [3] and in assay [4] was “no binding” throughout.

B6: Clone 34 Fab (Fab, V domains shown)
VH: QVQLVQSGAEVKKPGASVKVSCKASGFDIQDTYMHWVRQAPGQGLEWMGRIEPASGHIKYDPKFQGRVTMTRDTSTSTVYMELSSLRSEDTAVYYCARSGGLPDWWGQGTTVTVSS
VL: EIVLTQSPGTLSLSPGERATLSCRASSSVSYMYWYQQKPGQAPRLLIYATSNLASGIPDRFSGSGSGTDFTLTISRLEPEDFAVYYCQQWEGNPRTFGGGTKLEIK
notes: Fab; also called variant 34
Consider B6, for which the binding result in assay [2], in assay [3] and in assay [4] was “no binding” each time.

B7: Clone X Fab (Fab, V domains shown)
VH: QVQLVQSGAEVKKPGASVKVSCKASGFDIQDTYMHWVRQAPGQGLEWMGRIDPASGHTKYDPKFQGRATITTDTSASTAYLQLSSLRSEDTAVYYCARSGGLPDFWGQGTTVTVSS
VL: EIVLTQSPGTLSLSPGERATLSCRASSSVSYMYWYQQKPGQAPRLLIYATSNLASGIPDRFSGSGSGTDFTLTISRLEPEDFAVYYCQQWSGNPRTFGGGTKLEIK
notes: Fab
Consider B7, for which the binding result in assay [2], in assay [3] and in assay [4] was “no binding” in each case.

B8: Clone 46 Fab (Fab, V domains shown)
VH: QVQLVQSGAEVKKPGASVKVSCKASGFDIQDTYMHWVRQAPGQGLEWMGRIEPASGHVKYSPKFQVRVTMTRDTSTSTVYMELSSLRSEDTAVYYCARSGGLPDWWGQGTTVTVSS
VL: EIVLTQSPGTLSLSPGERATLSCRASSSVSYMYWYQQKPGQAPRLLIYATSNLASGIPDRFSGSGSGTDFTLTISRLEPEDFAVYYCQQWEGNPRTFGGGTKLEIK
notes: Fab
In the case of B8, the binding result in assay [2], in assay [3] and in assay [4] was “no binding” throughout.

B9: Clone 2 Fab (Fab, V domains shown)
VH: QVQLVQSGAEVKKPGASVKVSCKASGFDIQDTYMHWVRQAPGQGLEWMGRIEPASGHIKYSPKFQGRVTMTRDTSTSTVYMELSSLRSEDTAVYYCARSGGLPDWWGQGTTVTVSS
VL: EIVLTQSPGTLSLSPGERATLSCRASSSVSYMYWYQQKPGQAPRLLIYATSNLASGIPDRFSGSGSGTDFTLTISRLEPEDFAVYYCQQWEGNPRTFGGGTKLEIK
notes: Fab
For the molecule B9, the binding result in assay [2], in assay [3] and in assay [4] was “no binding” throughout.

B10: clone 2-3 Fab (12835 framework variant) (Fab, V domains shown)
VH: QVQLVQSGAEVKKPGASVKLSCKASGFDIQDTYMHWVRQAPGQGLEWMGRIDPASGHTKYDPKFQVRVTMTTDTSTSTVYMELSSLRSEDTAVYYCSRSGGLPDVWGQGTTVTVSS
VL: EIVLTQSPGTLSLSPGERATLSCRASSSVSYMYWYQQKPGQAPRPWIYATSNLASGIPDRFSGSGSGTDYTLTISRLEPEDFAVYYCQQWSGNPRTFGGGTKLEIK
notes: Fab
For the molecule B10, the binding result in assay [1] was “binds”.

B11: clone 1-3 Fab (12835 framework variant) (Fab, V domains shown)
VH: QVQLVQSGAEVKKPGASVKLSCKASGFDIQDTYMHWVRQAPGQGLEWMGRIDPASGHTKYDPKFQVRVTMTTDTSTSTVYMELSSLRSEDTAVYYCSRSGGLPDVWGQGTTVTVSS
VL: EIVLTQSPGTLSLSPGERVTMSCRASSSVSYMYWYQQKPGQAPRPWIYATSNLASGIPDRFSGSGSGTDYTLTISRLEPEDFAVYYCQQWSGNPRTFGGGTKLEIK
notes: Fab
As to B11, the binding result in assay [1] was “binds”.

B12: 12835 (humanized 5C3D11) Fab (Fab, V domains shown)
VH: QVQLVQSGAEVKKPGASVKLSCKASGFDIQDTYMHWVRQAPGQGLEWMGRIDPASGHTKYDPKFQVRVTMTTDTSTSTVYMELSSLRSEDTAVYYCSRSGGLPDVWGQGTTVTVSS
VL: EIVLTQSPGTLSLSPGERVTMSCRASSSVSYMYWYQQKPGQAPRPWIYATSNLASGVPDRFSGSGSGTDYTLTISRLEPEDFAVYYCQQWSGNPRTFGGGTKLEIK
notes: Fab
For B12, in assay [1], the binding result is on record as “binds”.

B13: Clone 17L Fab (Fab, V domains shown)
VH: QVQLVQSGAEVKKPGASVKVSCKASGFDIQDTYMHWVRQAPGQGLEWMGRIDPASGHLKYDPKFQVRVTMTRDTSTSTVYMELSSLRSEDTAVYYCARSGGLPDMWGQGTTVTVSS
VL: EIVLTQSPGTLSLSPGERATLSCRASSSVSYMYWYQQKPGQAPRLLIYATSNLASGIPDRFSGSGSGTDFTLTISRLEPEDFAVYYCQQWQGNPRTFGGGTKLEIK
notes: Fab
As to B13, the binding result in assay [2], in assay [3] and in assay [4] was “no binding” in each case.

B14: 21-3 (CDR-grafted HC) Fab (Fab, V domains shown)
VH: QVQLVQSGAEVKKPGASVKVSCKASGFDIQDTYMHWVRQAPGQGLEWMGRIDPASGHTKYDPKFQVRVTMTRDTSTSTVYMELSSLRSEDTAVYYCARSGGLPDVWGQGTTVTVSS
VL: EIVLTQSPGTLSLSPGERATLSCRASSSVSYMYWYQQKPGQAPRLLIYATSNLASGVPDRFSGSGSGTDYTLTISRLEPEDFAVYYCQQWSGNPRTFGGGTKLEIK
notes: Fab; also called clone 21-3
B14: the binding result in assay [1] is reported as “binds”.

B15: clone 1-4 Fab (12835 framework variant) (Fab, V domains shown)
VH: QVQLVQSGAEVKKPGASVKLSCKASGFDIQDTYMHWVRQAPGQGLEWMGRIDPASGHTKYDPKFQVRVTMTTDTSTSTVYMELSSLRSEDTAVYYCSRSGGLPDVWGQGTTVTVSS
VL: EIVLTQSPGTLSLSPGERVTMSCRASSSVSYMYWYQQKPGQAPRLWIYATSNLASGIPDRFSGSGSGTDYTLTISRLEPEDFAVYYCQQWSGNPRTFGGGTKLEIK
notes: Fab
For the molecule B15, the binding result in assay [1] is listed as “binds”.

B16: Clone 52 Fab (Fab, V domains shown)
VH: QVQLVQSGAEVKKPGASVKVSCKASGFDIQDTYMHWVRQAPGQGLEWMGRIEPASGHIKYSPKFQGRVTMTRDTSTSTVYMELSSLRSEDTAVYYCARSGGLPDWWGQGTTVTVSS
VL: EIVLTQSPGTLSLSPGERATLSCGASSSVSYMYWYQQKPGQAPRLLIYATSNLASGIPDRFSGSGSGTDFTLTISRLEPEDFAVYYCQQWEGNPRTFGGGTKLEIK
notes: Fab
Turning to B16, the binding result in assay [2], in assay [3] and in assay [4] was “no binding” throughout.
